Laboratory results reported in patent publication US20220313789A1, “TARGETING MELANOCORTIN 3 RECEPTOR FOR TREATMENT/PREVENTION OF EATING, METABOLISM, AND/OR EMOTIONAL DISORDERS” (The Regents of the University of Michigan, priority 2019, published 2022).
“Also recorded” adds a separate entry of the source. Bridge positions count the residues as written; N and C are the ends. Square brackets hold non-standard residues; d marks the D form. d2Nal = N[C@H](Cc1ccc2ccccc2c1)C(=O)O; Nle = CCCC[C@H](N)C(=O)O

Legend:
MC3R KO mice = experiment: Feeding after i.c.v. administration in MC3R KO mice; format: in vivo
Experimental: FIG. 13. […] Data shown as mean+/−s.e.m. Panels A and B analyzed with Student's paired t-test. n=9 mice for panels A and B.
B: 24-hour food intake following administration of vehicle (aCSF) or C18 to WT mice. […] C: Change in BW following injection of vehicle or C18 (5 ug). D and E: Cumulative food intake (D) and 24-hour food intake (E) following C18 or vehicle administration in MC3R KO mice. […] F: Cumulative food intake following administration of the MC3R antagonist C11 or vehicle. […] G: 24-hour food intake in WT mice following administration of C11. H: Change in BW following injection of vehicle or C11 (5 ug). I and J: Food intake following i.c.v. injection of vehicle (DMSO, 500 nl) or C11 (5 ug, 500 nl) in MC3R KO mice. […] Data represents mean+/−s.e.m. […] Panels B, C, G, H, and J analyzed with unpaired Student's t-test. n=7 mice and n=8 mice for vehicle and C18 groups in panels A-C. n=19 mice for panels F and G. n=6 mice for vehicle and n=8 mice for C11 group in panel H. n=12 mice for vehicle and C18 group in panels D and E. n=8 mice for vehicle and C11 groups in panels I and J.
(§1) For central administration of MC3R agonist compounds we first administered vehicle injections (500 nl DMSO) for 2-4 consecutive days to habituate mice to handling and injection. […] Body weight was measured daily immediately prior to injections.

MC3R [1] = target: T1, MC3R (Mus musculus, UniProt P33033); experiment: Open field test; format: in vivo, mice
T1 construct: from tissue; host or cells: living mice (C57/BL6J background), central nervous system / hypothalamus
T1 sequence (P33033 whole entry): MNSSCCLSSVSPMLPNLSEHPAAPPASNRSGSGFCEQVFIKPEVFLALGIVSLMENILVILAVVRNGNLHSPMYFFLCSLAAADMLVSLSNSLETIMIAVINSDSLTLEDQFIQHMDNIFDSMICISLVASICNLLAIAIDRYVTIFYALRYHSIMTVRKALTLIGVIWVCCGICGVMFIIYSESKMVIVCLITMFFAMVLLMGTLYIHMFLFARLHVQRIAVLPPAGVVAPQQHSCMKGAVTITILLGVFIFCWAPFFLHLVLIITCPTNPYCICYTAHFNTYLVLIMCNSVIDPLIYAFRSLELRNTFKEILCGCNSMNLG
Experimental: (§2) Anxiety behavioral assays were performed in the following order with 2-4 days separated between each anxiety assay: elevated plus maze, open field test, novelty suppressed feeding test. Behavioral assays were performed during the light cycle between 10 am-5 pm. Open field and elevated plus maze testing was performed in ad libitum fed mice with one exception.
Open field tests were performed as previously described (Refs. 55-57; herein incorporated by reference in their entireties). Mice were placed in the corner of a 50 cm×50 cm open field chamber. The center of the arena was marked as the 25 cm×25 cm area in the center of the open field. Exploratory activity was recorded for five minutes using ANYmaze software (Stoelting). Entries to the center, time in the center, distance in the center, and total distance traveled were automatically recorded with video tracking software. For PG992 experiments, mice were randomly assigned to receive either vehicle or PG992 injections. One week later the order of treatments was reversed such that each mouse received both vehicle and PG992 treatment in random order. For DREADD mediated assays, mice were administered CNO on the day of testing. Differences in open field activity between DREADD transduced mice and WT littermates were compared on testing day in response to CNO treatment. Similarly, MC3R KO and WT mice were testing in the open field on the same day in random order and differences in exploratory activity were calculated as previously described.

MC3R [2] = target: T1, MC3R; experiment: Novelty suppressed feeding test; format: in vivo, mice; conditions: i.c.v., NSF test
Experimental: as §2
Prior to testing, mice were fasted overnight (6 pm-10 am). NSF testing was performed in the open field arena described above. Briefly, a single pellet of food (3-4 grams) was placed in the center of the open field. Mice were placed in the corner of the open field and their activity was automatically scored for ten minutes using animal tracking software. Latency to eat the food was manually recorded during testing. Feeding was scored as five consecutive seconds of chewing on the food.

MC3R [3] = target: T1, MC3R; experiment: MC3R agonist feeding assays (food intake, body weight) in WT mice; format: in vivo
Experimental: Clozapine-N-Oxide (CNO) was purchased from Enzo Life Sciences. On the day of experiments fresh stock CNO (1 mg/0.1 ml) was prepared in water. CNO was administered via i.p. injections (200 ul Saline; 1 mg/kg). […] (5 ug; 500 nl DMSO).
Behavioral assays were performed on ad libitum fed mice. Mice were single caged for at least one week prior to starting feeding assays. Feeding assays were performed during the light period.
For peripheral administration of MC3R agonist compounds, mice were first habituated to vehicle injections (i.p.; saline in 10% DMSO; 200 ul) for 2-4 consecutive days. Following habituation and consecutive days of stable food intake in response to vehicle injections, agonist compounds were administered (i.p.; 10 mg/kg; saline in 10% DMSO). Food intake was measured following drug or vehicle administration by carefully removing food from the food hopper and weighing on a scale. Cages were changed daily during acute feeding assays to prevent spillage of food from the food hopper.
as §1

AgRP neurons = experiment: Feeding after MC3R agonist with chemogenetic (hM4Di) inhibition of AgRP neurons; format: in vivo, mice
Experimental: FIG. 7. […] Either saline or CNO (1 mg/kg, i.p.) was administered fifteen minutes prior to i.c.v. injections. […] Data represented as mean+/−s.e.m.
A and B: Schematic of experimental strategy to express inhibitory DREADD virus in hypothalamic AgRP neurons (A) and representative image of DREADD transduced AgRP neurons (B). Scale bar, 200 um. C: Food intake following administration of C18 in the presence of saline or CNO (0.1 mg/kg, i.p.). […] D: RNAscope analysis of MC3R expression in WT and AgRP-MC3R KI mice. […] Scale bar, 500 um.
To inhibit AgRP neurons, the arcuate nucleus of AgRP-Cre mice was targeted with stereotaxic viral injections of Cre-dependent AAV viral vectors expressing the chemogenetic inhibitor hM4Di (FIG. 7).

MC3R [4] = target: T1, MC3R; experiment: Elevated plus maze; format: in vivo, mice
Experimental: as §2
To perform elevated plus maze tests mice were initially placed into the closed arm of the elevated plus maze arena. The arena consisted of 2 50 cm long arms. One arm was enclosed by walls while the other arm was open. Activity in the maze was recorded for five minutes using animal tracking software (ANYmaze, Stoelting). Latency to enter the open arms, total distance traveled, entries to open arms, time in open arms, and distance traveled in the open arms was automatically calculated using tracking software. Treatment schedules for the elevated plus maze were identical to those described for the open field test.

[5] = i.c.v. 5 ug in 500 nl DMSO vs vehicle
[6] = 5 ug, i.c.v., elevated plus maze

Ac-Nle-c[Asp-Trp-Pro-DNal(2′)-Arg-Trp-Lys]-NH2 (Ac-[Nle]DWP[d2Nal]RWK-NH2; lactam 2-8) [PG992]
24-hour food intake (MC3R KO mice; [5]): No significant difference in 24-hour food intake
Acute food intake (MC3R KO mice; [5]): No significant difference in food intake
body weight (MC3R KO mice; icv): no activity on food intake or body weight
food intake (MC3R KO mice; icv): no activity on food intake or body weight; also recorded: No effect on food intake
distance traveled in the center (MC3R [1]; 5 ug, i.c.v.): increased the distance traveled in the center; also recorded: increased distance traveled in the center
entries in the center (MC3R [1]; 5 ug, i.c.v.): increased entries to the center; also recorded: increased distance traveled in the center and entries in the center
latency to enter the center (MC3R [1]; 5 ug, i.c.v.): decreased the latency to enter the center; also recorded: reduced latency to enter the center of the arena
total distance traveled (MC3R [1]; 5 ug, i.c.v.): Total distance traveled was also increased
anxiolytic activity (MC3R [1]; ICV, elevated plus maze, and novelty suppressed feeding assay): clear anxiolytic activity
distance traveled (MC3R [2]): without significantly effecting total distance traveled; also recorded: did not affect distance traveled
latency to eat (MC3R [2]): decreased latency to feed; also recorded: reduced latency to eat
total time eating (MC3R [2]): increased total time eating
weight gain (MC3R [3]; 3 days of treatment): 8%
24 h food intake (MC3R [3]; PG990 series of peptides, route not given in the sentence): increases 24 h food intake
stimulation of food intake (MC3R [3]; central injection (i.c.v.), 5 μg): ~50%
24-hour food intake compared with chemogenetic (DREADD) neuron activation (MC3R [3]; i.c.v. PG992 vs CNO/hM3Dq): increased 24-hour food intake to a greater extent than chemogenetic activation of AgRP neurons; also recorded: even more potent inducer of 24 h food intake than DREADD activation of MC3R ARC neurons; also recorded: produced a greater change in 24-hour food intake than AgRP neuron activation
Feeding in response to central administration (MC3R [3]; i.c.v., 5 ug in 500 nl DMSO, vs vehicle): acutely stimulated feeding at all measured time-points
Food intake at 4 and 24 hours (MC3R [3]; i.c.v., 5 ug, single injection): increased food intake at both 4 hours and 24 hours post injection
increase in body weight each treatment day (MC3R [3]; once daily i.c.v. injections): 2-3%
Daily food intake (MC3R [3]; once daily i.c.v. injections (5 ug)): increased daily 24-hour food intake on each day of treatment
duration of food intake stimulation (MC3R [3]; single i.c.v. injection): at least 24 hours
PG992 induced stimulation of food intake under AgRP neuron inhibition (AgRP neurons; CNO (1 mg/kg, i.p.) before PG992 5 ug i.c.v., hM4Di in AgRP neurons): significantly reduced the ability of PG992 to stimulate feeding; also recorded: significantly reduced in the presence of AgRP neuron inhibition
4-hour, 8-hour and 24-hour food intake (AgRP neurons; PG992 5 ug i.c.v., saline or CNO (1 mg/kg, i.p.) fifteen minutes before): robustly stimulated food intake at 4 hours, 8 hours, and 24 hours; also recorded: increased food intake following both saline and CNO injections at all time-points
Entries to the open arms (MC3R [4]; [6]): trended towards being higher; also recorded: entered the open arms more frequently
distance traveled in the open arms (MC3R [4]; [6]): increasing distance traveled in the open arms; also recorded: traveled more distance in the open arms
latency to enter the open arms (MC3R [4]; [6]): decreasing latency to enter the open arms; also recorded: entered the open arms faster
total distance traveled (MC3R [4]; [6]): increased total distance traveled in the elevated plus maze

Ac-Arg-Arg-(pI)DPhe-Tic-NH2 [compound 18]
Food intake, cumulative/acute and 24-hour (MC3R KO mice; i.c.v. 5 ug vs vehicle): No difference in food intake was detected following C18 administration
Food intake in the presence of saline or CNO (AgRP neurons; C18, CNO 0.1 mg/kg, i.p., inhibitory DREADD in AgRP neurons): increased food intake following administration of saline but not following CNO mediated inhibition of AgRP neurons

H-Tyr-Val-Met-Gly-His-Phe-Arg-DTrp-Asp-Arg-Phe-Gly-OH [D-Trp8-γ-MSH]
anxiety in the elevated plus maze assay (MC3R [4]; single peripheral injection): trend towards reduction of anxiety
